Assay results reported in publication PMC5487423 (2017).

Legend:
Test in all cases: BLI
CCL8 = target: T1, CCL8 (human, UniProt P80075 24-99)
T1 chain: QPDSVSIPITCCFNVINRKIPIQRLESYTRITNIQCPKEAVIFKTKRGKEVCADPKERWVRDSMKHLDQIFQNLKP

CCL1 = target: T2, CCL1 (human, UniProt P22362 24-96)
T2 chain: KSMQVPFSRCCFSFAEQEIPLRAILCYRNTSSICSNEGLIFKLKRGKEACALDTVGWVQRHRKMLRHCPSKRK

CCL4L1_HUMAN = target: T3, CCL4L1_HUMAN (Homo sapiens)
T3 chain: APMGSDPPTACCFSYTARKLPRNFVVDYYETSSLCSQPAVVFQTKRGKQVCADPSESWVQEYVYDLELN

CCL24_HUMAN = target: T4, CCL24_HUMAN (Homo sapiens)
T4 chain: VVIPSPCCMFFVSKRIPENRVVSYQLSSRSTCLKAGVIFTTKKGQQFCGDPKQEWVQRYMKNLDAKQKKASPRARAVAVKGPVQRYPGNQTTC

CCL5 = target: T5, CCL5 (human, UniProt P13501 24-91)
T5 chain: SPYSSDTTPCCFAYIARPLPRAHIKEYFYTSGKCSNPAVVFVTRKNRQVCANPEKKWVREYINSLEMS

B1: P1183_AMBTR, purified, C-terminal StrepII-8xHis tag (natural protein)
chain: ETGEAPKDDFEYDGGCPFVVLDNGTHVKPAGCSHLCNGAPETLDNIECYNVTEEVAKRMTPGIPYACWLGWCSKGECKRDNRTEVCYRGSEEE
- Kd (CCL8): 1100 nM

B2: P974_AMBCA, purified, C-terminal StrepII-8xHis tag (natural protein)
chain: ETGENTQQEEQDYDYGTDTCPFPVLANKTNKAKFVGCHQKCNGGDQKLTDGTACYVVERKVWDRMTPMLWYECPLGECKNGVCEDLRKKEDCRKGNGEEK
- Kd (CCL1): 71 nM
- Kd (CCL8): 2.6 nM

B3: P546_AMBCA, purified, C-terminal StrepII-8xHis tag (natural protein)
chain: ETGENTQQEEEDYDYGTDTCPFPVLANKTNKAKFVGCHQKCNGGDQKLTDGTACYVVERKVWDRMTPMLWYSCPLGECKNGVCEDLRKKEECRKGNGEEK
- Kd (CCL4L1_HUMAN): 8.9 nM
- Kd (CCL8): 1.3 nM

B4: P985_AMBPA, purified, C-terminal StrepII-8xHis tag (natural protein)
chain: ETGDEESEELGASTDVDYEELDANCTCPAPALTSTRNNKHYPLGCIYNCSSYNCTIPDGTPCYVLTLGEVKEHLQIGSTVPNCTCGLCRNGTCVSNGTVEECFAVEEIEET
- Kd (CCL4L1_HUMAN): 21 nM
- Kd (CCL24_HUMAN): 41 nM
- Kd (CCL1): 8.3 nM

B5: P983_AMBCA, purified, C-terminal StrepII-8xHis tag (natural protein)
chain: ETGEDTGTEDDFDYGNTGCPFPVLGNYKSNMTKPVGCKNKCGSGYEVLNDTTPCYVIDQKVFNNMVPLRQYSKCPLGFCENGECKPNDQAEDCYKGREEQKGGGGGSGGGGSGGASAWSHPQFEKLEHHHHHHHH
- Kd (CCL4L1_HUMAN): 2.9 nM

B6: P467_RHIPU, purified, C-terminal StrepII-8xHis tag (natural protein)
chain: ETGAEKSLDSDSSGEDYELWTQGCPFLVAENRTGFGTTVSCQHNCNGAIEKVPEGEPCYTIGEDGLGRMKLNLPYNCSLGECSGGVCVPNGRSDVCFKRTWEENNKAMA
- Kd (CCL4L1_HUMAN): 4.7 nM
- Kd (CCL5): 7.7 nM
- Kd (CCL1): 53 nM
